Reference: US7247611 (University of Pennsylvania, dated 2007)

Molecular target: T1, single chain urokinase-type plasminogen activator (UniProt P00749 21-431, radiolabeled with 125I (iodobeads) in the binding assays)
T1 construct: scuPA alone, without peptide; also called scuPA; recombinant scuPA
Assay: 125I-scuPA on LM-TK- cells with peptide (FIG. 1A); indirect read-out of the peptide acting on scuPA
Protocol: The cells were washed four times with binding buffer, solubilized in 0.1 N NaOH, and the cell extract was assessed for radioactivity. […] Assays were repeated at least three times, and data presented herein represent the mean and standard deviation.

B1: peptide EEIIMR (SEQ ID NO: 5) (peptide)
peptide: EEIIMR
notes: Synthetic variant of EEIIMD with Arg at the carboxyl terminus; also called control peptide EEIIMR
scuPA-binding-promoting activity relative to peptide EEIIMD: ~20%
